This assay has as its target amphiphilic diblock polypeptide (ADP) derived from elastin-mimetic sequences, unlabeled. The assay is described as follows: dynamic light scattering.

B1: amphiphilic diblock polypeptide (ADP) derived from elastin-mimetic sequences, unlabeled (protein)
chain: VPGVGVPGEGVPGVGVPGEGVPGVGVPGVGVPGEGVPGVGVPGEGVPGVGVPGVGVPGEGVPGVGVPGEGVPGVGVPGVGVPGEGVPGVGVPGEGVPGVGVPGVGVPGEGVPGVGVPGEGVPGVGVPGVGVPGEGVPGVGVPGEGVPGVGVPGVGVPGEGVPGVGVPGEGVPGVGVPGVGVPGEGVPGVGVPGEGVPGVGVPGVGVPGEGVPGVGVPGEGVPGVGVPGVGVPGEGVPGVGVPGEGVPGVGIPGVGIPGVGVPGYGIPGVGIPGVGIPGVGIPGVGVPGYGIPGVGIPGVGIPGVGIPGVGVPGYGIPGVGIPGVGIPGVGIPGVGVPGYGIPGVGIPGVGIPGVGIPGVGVPGYGIPGVGIPGVGIPGVGIPGVGVPGYGIPGVGIPGVGIPGVGIPGVGVPGYGIPGVGIPGVGIPGVGIPGVGVPGYGIPGVGIPGVGIPGVGIPGVGVPGYGIPGVGIPGVGIPGVGIPGVGVPGYGIPGVGIPGVGIPGVGIPGVGVPGYGIPGVGIPGVGIPGVGIPGVGVPGYGIPGVGIPGVGIPGVGIPGVGVPGYGIPGVGIPGVGIPGVGIPGVGVPGYGIPGVGIPGVGIPGVGIPGVGVPGYGIPGVGIPGVG
modifications: not checked
The molecule B1 had a stoichiometry N (chains per micelle) of 106.
